Values of other authors as cited in PMC4716630.

Target: hMSH2 (Homo sapiens) (UniProt P43246)
Sequence (P43246 2-934): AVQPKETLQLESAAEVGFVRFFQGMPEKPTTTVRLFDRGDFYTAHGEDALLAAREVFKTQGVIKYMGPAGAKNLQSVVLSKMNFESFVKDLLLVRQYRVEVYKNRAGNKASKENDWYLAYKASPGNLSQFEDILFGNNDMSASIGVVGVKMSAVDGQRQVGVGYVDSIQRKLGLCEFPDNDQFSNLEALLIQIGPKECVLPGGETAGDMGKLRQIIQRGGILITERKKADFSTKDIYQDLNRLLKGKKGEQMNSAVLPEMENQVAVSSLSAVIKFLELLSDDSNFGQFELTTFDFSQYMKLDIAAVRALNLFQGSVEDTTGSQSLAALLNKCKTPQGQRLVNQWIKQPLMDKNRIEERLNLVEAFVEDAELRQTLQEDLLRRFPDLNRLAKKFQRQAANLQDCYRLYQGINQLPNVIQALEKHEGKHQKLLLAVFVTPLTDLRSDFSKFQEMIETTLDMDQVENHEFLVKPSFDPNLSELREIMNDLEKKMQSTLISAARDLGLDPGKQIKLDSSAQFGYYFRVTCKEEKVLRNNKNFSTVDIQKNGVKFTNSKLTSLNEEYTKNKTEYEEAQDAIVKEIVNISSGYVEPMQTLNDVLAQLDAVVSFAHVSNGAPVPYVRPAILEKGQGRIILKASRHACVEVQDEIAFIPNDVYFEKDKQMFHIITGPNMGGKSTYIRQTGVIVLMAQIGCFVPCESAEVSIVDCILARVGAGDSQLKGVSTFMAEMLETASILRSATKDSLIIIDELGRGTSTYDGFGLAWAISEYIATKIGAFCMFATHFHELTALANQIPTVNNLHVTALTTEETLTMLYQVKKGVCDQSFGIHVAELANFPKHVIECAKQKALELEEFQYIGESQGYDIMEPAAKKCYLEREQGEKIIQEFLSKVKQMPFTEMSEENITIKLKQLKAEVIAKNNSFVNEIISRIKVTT

Sequence of NKG2D (P26718 whole entry): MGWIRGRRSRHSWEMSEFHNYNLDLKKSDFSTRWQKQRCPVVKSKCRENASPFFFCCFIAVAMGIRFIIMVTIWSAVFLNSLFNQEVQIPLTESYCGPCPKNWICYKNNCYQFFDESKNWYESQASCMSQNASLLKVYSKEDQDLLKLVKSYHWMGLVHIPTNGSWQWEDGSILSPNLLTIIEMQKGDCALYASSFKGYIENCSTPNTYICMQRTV

Kd: 132 nM
Substance: NKG2D (from UniProt P26718)
